In publication PMC8995355 (Molecular cell, 2022):
Square brackets hold non-standard residues; d marks the D form. Ends that are not written are not given here. pS = N[C@@H](COP(=O)(O)O)C(=O)O

How the values were obtained:
RIF1 = RIF1 (UniProt Q5UIP0); assay: biotin-peptide streptavidin pull-down, RIF1 blot
[1] = target: Cy5-53BP1(166-182) pS176/pS178; pS176/pS178 (S) (human) (UniProt Q12888); assay: fluorescence polarisation
[2] = target: T1, RIF1(1-980), recombinant N-terminal fragment with the HEAT repeat-rich NTD (human, UniProt Q5UIP0 1-980); assay: fluorescence polarisation
T1 sequence (looked up): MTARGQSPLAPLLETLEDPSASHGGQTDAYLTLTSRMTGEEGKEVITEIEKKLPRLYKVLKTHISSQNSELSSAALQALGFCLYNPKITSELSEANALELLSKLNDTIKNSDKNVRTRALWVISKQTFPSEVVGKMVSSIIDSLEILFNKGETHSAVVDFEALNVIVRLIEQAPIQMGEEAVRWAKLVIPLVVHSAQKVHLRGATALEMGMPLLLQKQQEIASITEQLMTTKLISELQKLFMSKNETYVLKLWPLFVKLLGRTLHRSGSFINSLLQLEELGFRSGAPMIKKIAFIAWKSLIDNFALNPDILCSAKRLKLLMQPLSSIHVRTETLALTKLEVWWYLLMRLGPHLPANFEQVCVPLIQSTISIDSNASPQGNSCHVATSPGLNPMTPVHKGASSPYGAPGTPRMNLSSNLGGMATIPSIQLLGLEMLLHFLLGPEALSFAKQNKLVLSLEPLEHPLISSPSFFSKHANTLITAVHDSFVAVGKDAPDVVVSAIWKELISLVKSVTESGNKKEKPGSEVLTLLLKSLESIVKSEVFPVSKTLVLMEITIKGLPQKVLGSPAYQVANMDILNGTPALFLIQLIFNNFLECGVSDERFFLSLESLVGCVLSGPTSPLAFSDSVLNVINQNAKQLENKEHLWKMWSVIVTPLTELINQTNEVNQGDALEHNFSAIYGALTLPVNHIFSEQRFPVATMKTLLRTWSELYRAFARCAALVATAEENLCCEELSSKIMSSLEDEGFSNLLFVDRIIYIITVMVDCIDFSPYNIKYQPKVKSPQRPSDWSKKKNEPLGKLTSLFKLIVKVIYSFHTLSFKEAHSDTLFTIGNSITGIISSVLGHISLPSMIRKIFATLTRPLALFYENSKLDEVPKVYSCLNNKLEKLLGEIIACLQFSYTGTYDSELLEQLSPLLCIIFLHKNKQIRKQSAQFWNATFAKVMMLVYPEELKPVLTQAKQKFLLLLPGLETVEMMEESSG

**Q.** Which “binding against the reference” value (RIF1; reference: unphosphorylated peptide (S518/S520), sites S518,S520) does the source give for “53BP1 511-527 (from UniProt Q12888) pS518/pS520 peptide” here?
**A.** stronger

**Q.** With “53BP1 686-702 (from UniProt Q12888) pT696/pS698 peptide” as the molecule, how does the “binding against the reference” value (RIF1; reference: unphosphorylated peptide (T696/S698), sites T696,S698) read?
**A.** stronger

**Q.** How did the Kd [1] turn out when “RIF1(1-980), recombinant N-terminal fragment with the HEAT repeat-rich NTD (from UniProt Q5UIP0 1-980) (domain or fragment)” was run?
**A.** 2000 nM

**Q.** Does Cy5-SQLGFGVLAL[pS]Q[pS]QDVE (peptide, UniProt Q12888 166-182, looked up) [Cy5-53BP1(166-182) pS176/pS178 E174A; pS176/pS178 (S) E174A] bind [2]?
**A.** binds

**Q.** Does Cy5-SQLGFGVLELEQ[pS]QDVE (peptide, UniProt Q12888 166-182, looked up) [Cy5-53BP1(166-182) S176E/pS178; S176E/pS178 (S)] bind [2]?
**A.** binds
